Assay [1] deals with T1, human glypican-1 (GPC1) (human, UniProt P35052 24-530).
T1 construct: also called human GPC1; HuGPC1
T1 sequence (looked up): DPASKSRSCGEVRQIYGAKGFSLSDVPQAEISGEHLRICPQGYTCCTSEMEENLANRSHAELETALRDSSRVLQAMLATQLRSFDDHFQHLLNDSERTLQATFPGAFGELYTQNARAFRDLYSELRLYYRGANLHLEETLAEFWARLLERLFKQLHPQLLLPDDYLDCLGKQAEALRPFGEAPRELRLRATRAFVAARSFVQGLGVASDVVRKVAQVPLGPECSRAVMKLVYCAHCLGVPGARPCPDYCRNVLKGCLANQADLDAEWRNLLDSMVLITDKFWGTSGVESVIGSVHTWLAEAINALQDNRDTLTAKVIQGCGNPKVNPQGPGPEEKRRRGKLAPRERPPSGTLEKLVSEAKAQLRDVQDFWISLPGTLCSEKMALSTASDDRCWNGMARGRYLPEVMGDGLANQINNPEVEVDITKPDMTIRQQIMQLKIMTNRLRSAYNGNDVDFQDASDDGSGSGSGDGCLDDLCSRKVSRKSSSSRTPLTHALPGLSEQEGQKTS
In words: Octet kinetic analysis (column Kdis).

For assay [2], the target named is T1, human glypican-1 (GPC1). Kind of assay: Octet kinetic analysis.
The target of assay [3] is T1, human glypican-1 (GPC1). Kind of assay: Octet analysis.
In assay [4] the target is T2, cell-surface GPC1 on GPC1-expressing tumor cells (2B9 KLM, H8, T3M4) (UniProt P35052 24-530, limits assumed).
T2 sequence (looked up): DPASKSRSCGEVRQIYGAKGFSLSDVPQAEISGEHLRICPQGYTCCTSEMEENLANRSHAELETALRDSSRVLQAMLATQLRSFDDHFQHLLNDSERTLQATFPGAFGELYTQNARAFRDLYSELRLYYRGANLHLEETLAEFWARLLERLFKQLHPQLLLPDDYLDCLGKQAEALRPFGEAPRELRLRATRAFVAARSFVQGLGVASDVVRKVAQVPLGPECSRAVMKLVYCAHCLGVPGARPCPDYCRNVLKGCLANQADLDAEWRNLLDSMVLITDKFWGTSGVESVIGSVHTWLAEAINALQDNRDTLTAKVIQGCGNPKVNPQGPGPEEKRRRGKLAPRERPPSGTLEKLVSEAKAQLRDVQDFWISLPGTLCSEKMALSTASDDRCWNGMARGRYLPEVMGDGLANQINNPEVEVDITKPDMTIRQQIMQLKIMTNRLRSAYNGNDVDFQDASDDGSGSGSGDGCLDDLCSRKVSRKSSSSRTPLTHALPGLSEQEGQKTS

Assay [5] deals with T1, human glypican-1 (GPC1). Kind of assay: ELISA on GPC1, OD450 against concentration.
Assay [6] addresses T1, human glypican-1 (GPC1). In words: Octet kinetic analysis. The source holds these as a separate data set. Background: Biolayer interferometry detects binding as a change in optical thickness at a sensor tip.
For a further assay, the target named is T3, human GPC2 (human, UniProt Q8N158 24-554, limits assumed).
T3 sequence (looked up): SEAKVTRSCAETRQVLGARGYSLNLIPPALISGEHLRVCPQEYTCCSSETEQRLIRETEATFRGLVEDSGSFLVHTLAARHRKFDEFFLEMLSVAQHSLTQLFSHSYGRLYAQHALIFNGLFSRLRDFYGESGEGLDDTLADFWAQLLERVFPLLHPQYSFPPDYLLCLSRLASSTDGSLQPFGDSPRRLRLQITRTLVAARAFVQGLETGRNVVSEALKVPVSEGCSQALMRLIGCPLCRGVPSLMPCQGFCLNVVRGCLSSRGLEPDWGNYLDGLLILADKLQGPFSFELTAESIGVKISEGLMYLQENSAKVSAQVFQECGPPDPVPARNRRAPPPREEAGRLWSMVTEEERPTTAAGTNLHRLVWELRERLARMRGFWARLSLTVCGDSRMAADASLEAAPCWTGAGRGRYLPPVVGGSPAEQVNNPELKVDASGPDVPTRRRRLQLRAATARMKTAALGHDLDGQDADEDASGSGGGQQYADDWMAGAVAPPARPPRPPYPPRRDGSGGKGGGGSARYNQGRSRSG
Kind of assay: monoclonal phage ELISA.

In the next assay the target is T4, human GPC6 (human, UniProt Q9Y625 24-529, limits assumed).
T4 sequence (looked up): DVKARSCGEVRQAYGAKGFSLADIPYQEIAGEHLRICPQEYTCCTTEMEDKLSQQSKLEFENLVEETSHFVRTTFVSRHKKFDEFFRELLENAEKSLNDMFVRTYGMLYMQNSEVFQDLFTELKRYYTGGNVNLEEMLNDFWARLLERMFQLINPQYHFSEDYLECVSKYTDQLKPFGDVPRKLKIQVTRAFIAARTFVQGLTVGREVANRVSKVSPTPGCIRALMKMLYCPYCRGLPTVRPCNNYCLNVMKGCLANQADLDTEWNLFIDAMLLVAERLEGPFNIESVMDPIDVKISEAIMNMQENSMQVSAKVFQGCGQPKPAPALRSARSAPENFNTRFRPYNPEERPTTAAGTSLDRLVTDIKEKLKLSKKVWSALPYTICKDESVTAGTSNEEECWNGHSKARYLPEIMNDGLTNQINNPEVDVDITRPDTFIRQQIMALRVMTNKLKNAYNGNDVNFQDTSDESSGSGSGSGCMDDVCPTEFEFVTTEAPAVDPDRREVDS
In words: monoclonal phage ELISA.

The next assay has as its target human GPC3 (human, UniProt P51654 25-559, limits assumed). In words: monoclonal phage ELISA. A general note: ELISA stands for enzyme-linked immunosorbent assay.
The next assay deals with T5, mouse GPC1 (mouse, UniProt Q9QZF2 24-529, limits assumed).
T5 construct: also called MsGPC1
T5 sequence (looked up): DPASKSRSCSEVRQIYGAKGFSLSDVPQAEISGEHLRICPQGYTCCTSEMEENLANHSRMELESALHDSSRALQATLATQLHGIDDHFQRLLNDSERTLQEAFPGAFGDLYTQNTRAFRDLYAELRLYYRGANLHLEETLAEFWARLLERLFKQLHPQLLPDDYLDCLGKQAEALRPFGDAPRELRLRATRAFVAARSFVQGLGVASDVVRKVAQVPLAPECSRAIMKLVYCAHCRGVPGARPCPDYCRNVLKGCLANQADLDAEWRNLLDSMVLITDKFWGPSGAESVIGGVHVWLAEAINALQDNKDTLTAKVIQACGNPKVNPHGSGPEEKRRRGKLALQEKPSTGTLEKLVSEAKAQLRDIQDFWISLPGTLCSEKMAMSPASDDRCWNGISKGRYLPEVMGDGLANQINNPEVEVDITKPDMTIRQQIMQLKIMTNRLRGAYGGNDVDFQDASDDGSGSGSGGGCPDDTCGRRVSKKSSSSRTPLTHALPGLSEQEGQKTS
In words: monoclonal phage ELISA.

Assay [7] addresses T6, human GPC5 (printed as 'GPCS') (human, UniProt P78333 25-554, limits assumed).
T6 construct: The text prints 'GPCS'
T6 sequence (looked up): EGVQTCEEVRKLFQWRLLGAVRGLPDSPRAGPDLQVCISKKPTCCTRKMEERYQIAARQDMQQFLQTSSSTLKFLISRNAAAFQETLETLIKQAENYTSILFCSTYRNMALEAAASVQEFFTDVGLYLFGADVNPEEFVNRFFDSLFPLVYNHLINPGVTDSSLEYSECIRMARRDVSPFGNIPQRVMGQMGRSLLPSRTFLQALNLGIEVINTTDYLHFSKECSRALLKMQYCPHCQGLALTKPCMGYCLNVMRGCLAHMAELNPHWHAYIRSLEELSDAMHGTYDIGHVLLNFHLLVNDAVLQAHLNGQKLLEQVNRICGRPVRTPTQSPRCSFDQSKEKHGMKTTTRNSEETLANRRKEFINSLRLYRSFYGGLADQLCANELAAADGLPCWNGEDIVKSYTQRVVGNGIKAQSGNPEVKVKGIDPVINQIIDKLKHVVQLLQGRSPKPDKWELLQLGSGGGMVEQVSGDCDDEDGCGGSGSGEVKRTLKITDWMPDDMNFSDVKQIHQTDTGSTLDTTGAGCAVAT
Kind of assay: monoclonal phage ELISA.

Assay [8] concerns the target T1, human glypican-1 (GPC1). In words: Octet kinetic analysis. The source holds these as a separate data set.

Chain of human GPC3 (P51654 25-559 limits assumed): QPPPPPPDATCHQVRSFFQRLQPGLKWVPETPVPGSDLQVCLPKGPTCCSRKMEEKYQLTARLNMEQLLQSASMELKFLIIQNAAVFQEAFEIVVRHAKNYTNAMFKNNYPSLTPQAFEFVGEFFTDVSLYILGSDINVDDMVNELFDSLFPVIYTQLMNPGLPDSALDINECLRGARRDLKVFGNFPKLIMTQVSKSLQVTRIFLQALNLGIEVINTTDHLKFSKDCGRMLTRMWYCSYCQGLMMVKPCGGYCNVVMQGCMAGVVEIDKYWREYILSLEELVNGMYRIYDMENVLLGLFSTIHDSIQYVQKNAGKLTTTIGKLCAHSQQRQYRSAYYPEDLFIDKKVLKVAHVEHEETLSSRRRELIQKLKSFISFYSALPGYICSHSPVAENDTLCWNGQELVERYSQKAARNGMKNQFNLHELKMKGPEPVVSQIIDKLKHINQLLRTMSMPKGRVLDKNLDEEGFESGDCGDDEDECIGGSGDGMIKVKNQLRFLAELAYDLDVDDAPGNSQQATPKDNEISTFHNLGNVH

B1: HM2-LR immunotoxin (other)
chain: MEVQLQQSGAELVRPGASVKLSCTASGFNIKDDYMHWVKQRPEQGLEWIGWIDPENGDTEYASKFQGKATITADTSSNTAYLQLSSLTSEDTAVYYCTRSSVGYWGQGTTLTVSSGGGGSGGGGSGGGGSDVVMTQTPLSLPVSLGDQASISCRSSQSLVHSNGNTYLHWYLQKPGQSPKLLIYKVSNRFSGVPDRFSGSGSGTYFTLKISRVEAEDLGVYFCSQRTHVPYTFGGGTKLEIKKLKASGGRHRQPRGWEQLGGGGGSPTGAEFLGDGGDVSFSTRGTQNWTVERLLQAHRQLEERGYVFVGYHGTFLEAAQSIVFGGVRARSQDLDAIWRGFYIAGDPALAYGYAQDQEPDARGRIRNGALLRVYVPRSSLPGFYRTSLTLAAPEAAGEVERLIGHPLPLRLDAITGPEEEGGRLETILGWPLAERTVVIPSAIPTDPRNVGGDLDPSSIPDKEQAISALPDYASQPGKPPREDLK
By koff is commonly meant the first-order rate constant of dissociation. Higher therefore signals a short-lived complex. The term Kd denotes the constant that tells how readily two partners part at equilibrium. The kon is the second-order rate constant of association. Low readings indicate slower complex formation, high ones faster complex formation. Molecule B1 had an off-rate (koff) with human glypican-1 (GPC1) [1] of 0.00206 s⁻¹. Further, the equilibrium dissociation constant (Kd) with human glypican-1 (GPC1) [2] turned out to be 6.94 nM; in the assay with human glypican-1 (GPC1) [3], 6.9 nM. The molecule also returned an on-rate (kon) in the assay with human glypican-1 (GPC1) [2] of 297000 M⁻¹ s⁻¹.

B2: D4-AAA-D4-LR immunotoxin (other)
chain: MQVQLVESGGGLVQPGGSLRLSCVASGYSYSIGYMAWFRQAPGKERAWVASRYTGDGGAVFDDAVKGRFTTSQESAGNTFDLQMDSLKPEDTAMYYCAAKGPGFGRWEYWGRGTQVTVSSAAAQVQLVESGGGLVQPGGSLRLSCVASGYSYSIGYMAWFRQAPGKERAWVASRYTGDGGAVFDDAVKGRFTTSQESAGNTFDLQMDSLKPEDTAMYYCAAKGPGFGRWEYWGRGTQVTVSSKLKASGGRHRQPRGWEQLGGGGGSPTGAEFLGDGGDVSFSTRGTQNWTVERLLQAHRQLEERGYVFVGYHGTFLEAAQSIVFGGVRARSQDLDAIWRGFYIAGDPALAYGYAQDQEPDARGRIRNGALLRVYVPRSSLPGFYRTSLTLAAPEAAGEVERLIGHPLPLRLDAITGPEEEGGRLETILGWPLAERTVVIPSAIPTDPRNVGGDLDPSSIPDKEQAISALPDYASQPGKPPREDLK
notes: also called bivalent D4 immunotoxin; D4-D4-LR
Broadly, the EC50 is the concentration at which the effect is half-maximal. Take B2: the EC50 in [4] was 1.9 nM; in the assay with human glypican-1 (GPC1) [5], 0.2 nM. The same molecule gave a Kd in the assay with human glypican-1 (GPC1) [6] of 0.09 nM.

B3: D4-GGS-D4-LR immunotoxin (other)
chain: MQVQLVESGGGLVQPGGSLRLSCVASGYSYSIGYMAWFRQAPGKERAWVASRYTGDGGAVFDDAVKGRFTTSQESAGNTFDLQMDSLKPEDTAMYYCAAKGPGFGRWEYWGRGTQVTVSSGGSQVQLVESGGGLVQPGGSLRLSCVASGYSYSIGYMAWFRQAPGKERAWVASRYTGDGGAVFDDAVKGRFTTSQESAGNTFDLQMDSLKPEDTAMYYCAAKGPGFGRWEYWGRGTQVTVSSKLKASGGRHRQPRGWEQLGGGGGSPTGAEFLGDGGDVSFSTRGTQNWTVERLLQAHRQLEERGYVFVGYHGTFLEAAQSIVFGGVRARSQDLDAIWRGFYIAGDPALAYGYAQDQEPDARGRIRNGALLRVYVPRSSLPGFYRTSLTLAAPEAAGEVERLIGHPLPLRLDAITGPEEEGGRLETILGWPLAERTVVIPSAIPTDPRNVGGDLDPSSIPDKEQAISALPDYASQPGKPPREDLK
notes: as for B2
On to B3, for which the half-maximal effective concentration (EC50) in [4] worked out at 3.8 nM; with human glypican-1 (GPC1) [5] it was 0.1 nM. Moreover, the affinity in the assay with human glypican-1 (GPC1) [6], expressed as Kd, was 0.08 nM.

B4: D4-LR immunotoxin (other)
chain: MQVQLVESGGGLVQPGGSLRLSCVASGYSYSIGYMAWFRQAPGKERAWVASRYTGDGGAVFDDAVKGRFTTSQESAGNTFDLQMDSLKPEDTAMYYCAAKGPGFGRWEYWGRGTQVTVSSKLKASGGRHRQPRGWEQLGGGGGSPTGAEFLGDGGDVSFSTRGTQNWTVERLLQAHRQLEERGYVFVGYHGTFLEAAQSIVFGGVRARSQDLDAIWRGFYIAGDPALAYGYAQDQEPDARGRIRNGALLRVYVPRSSLPGFYRTSLTLAAPEAAGEVERLIGHPLPLRLDAITGPEEEGGRLETILGWPLAERTVVIPSAIPTDPRNVGGDLDPSSIPDKEQAISALPDYASQPGKPPREDLK
In the assay with human glypican-1 (GPC1) [1], B4 came in with a koff of 0.00218 s⁻¹. Besides, the concentration giving a half-maximal response (EC50) in assay [4] amounted to 8.1 nM; in the assay with human glypican-1 (GPC1) [5], 4.3 nM. For the same molecule, the dissociation constant Kd with human glypican-1 (GPC1) [2] turned out to be 6.25 nM; with human glypican-1 (GPC1) [3], 6.3 nM. Besides, the kon with human glypican-1 (GPC1) [2] turned out to be 350000 M⁻¹ s⁻¹.

B5: camel single-domain antibody D4 (VHH)
VHH: QVQLVESGGGLVQPGGSLRLSCVASGYSYSIGYMAWFRQAPGKERAWVASRYTGDGGAVFDDAVKGRFTTSQESAGNTFDLQMDSLKPEDTAMYYCAAKGPGFGRWEYWGRGTQVTVSS
notes: also called D4 antibody; VHH antibody D4
Regarding B5, the binding result with human GPC2 is on record as “no binding”; with human GPC6, “no binding”; with human GPC3, “no binding”; with mouse GPC1, “binds”; in assay [7], “no binding”. The same molecule had a Kd with human glypican-1 (GPC1) [8] of 1.3 nM.

The record behind these values is patent publication US20220098323A1 (US Dept. of Health and Human Services, published 2022).
